Tested on: Tyr^C89S locus
Assay: Tyr^C89S knock-in by three-component CRISPR, genotyping/albino phenotype of F0 pups
Assay type: in vivo, mouse
Method: tracrRNA, crRNAs, and ssODNs were synthesized by Integrated DNA Technologies (TABLE 1). All injection mixtures were prepared in a final volume of 50 μL according to the following methodology: Using RNase-free water, reagents, and consumables, crRNA (final concentration 0.61 μM), tracrRNA (final concentration 0.61 μM), and ultrapure Tris-HCl, pH 7.39 (final concentration 10 mM, ThermoFisher) were mixed and incubated at 95° C. for 5 minutes. The mixtures were cooled to room temperature for 10 minutes on the benchtop, and then, EnGen Cas9-NLS S. pyogenes (New England Biolabs) was added to a final concentration of 30 ng/μL. The mixtures were incubated at 37° C. for 15 minutes before adding any remaining components: ssODN (final concentration 3 ng/μL or 30 ng/μL), RAD51 (Creative Biomart, final concentration 10 ng/μL). Injection mixtures were stored on ice and briefly heated to 37° C. prior to injection. For experiments utilizing RS-1, embryos were cultured in KSOM-AA (EMD Millipore MR-121-D) with […] RS-1 (Sigma) dissolved in DMSO or DMSO (Sigma, 1:1000) for 24 hours, washed, and cultured in EmbryoMax FHM HEPES Buffered Medium (Sigma) until collection for genotyping.
For all experiments except those described in FIG. 6, the male pronucleus was injected. Injections performed for the CPI portion of FIG. 6 were targeted to the cytoplasm. […]

B1: RAD51: recombinant human strand exchange protein RAD51 (Creative Biomart RAD51-134H), transcript variant 4 (protein, UniProt Q06609 2-339, looked up)
DNA repair protein RAD51 …: AMQMQLEANADTSVEEESFGPQPISRLEQCGINANDVKKLEEAGFHTVEAVAYAPKKELINIKGISEAKADKILAEAAKLVPMGFTTATEFHQRRSEIIQITTGSKELDKLLQGGIETGSITEMFGEFRTGKTQICHTLAVTCQLPIDRGGGEGKAMYIDTEGTFRPERLLAVAERYGLSGSDVLDNVAYARAFNTDHQTQLLYQASAMMVESRYALLIVDSATALYRTDYSGRGELSARQMHLARFLRMLLRLADEFGVAVVITNQVVAQVDGAAMFAADPKKPIGGNIIAHASTTRLYLRKGRGETRICKIYDSPCLPEAEAMFAINADGVGDAKD
- pups with albino phenotype from homozygous KI of the Tyr^C89S allele (F0 pups with RAD51, 12% without): 44.4%
- homozygous KI rate relative to injection without RAD51 (Tyr locus): more than doubled
